From paper PMC10397247
Each block holds one binder with its values, some of them ahead of it.

Tests used:
Assay in all cases: two-hybrid library CCNG1;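 note: natural log of median RNA to DNA barcode read ratio; higher means stronger binding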
4H2586-bA = molecular target: T1, 4H2586-bA
T1 chain: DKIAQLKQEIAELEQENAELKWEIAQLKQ

4H2627-bA = molecular target: T2, 4H2627-bA
T2 chain: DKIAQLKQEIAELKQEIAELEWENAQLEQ

4H2673-bA = molecular target: T3, 4H2673-bA
T3 chain: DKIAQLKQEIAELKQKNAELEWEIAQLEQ

4H2702-bA = molecular target: T4, 4H2702-bA
T4 chain: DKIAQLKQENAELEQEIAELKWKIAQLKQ

4H3010-bA = molecular target: T5, 4H3010-bA
T5 chain: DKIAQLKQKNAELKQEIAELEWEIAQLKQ

4H3112-bA = molecular target: T6, 4H3112-bA
T6 chain: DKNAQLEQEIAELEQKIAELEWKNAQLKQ

4H3427-bA = molecular target: T7, 4H3427-bA
T7 chain: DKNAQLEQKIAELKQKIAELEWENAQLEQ

4H346-bA = molecular target: T8, 4H346-bA
T8 chain: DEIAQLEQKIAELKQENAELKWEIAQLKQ

4H3926-bA = molecular target: T9, 4H3926-bA
T9 chain: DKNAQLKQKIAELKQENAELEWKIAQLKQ

4H4073-bA = molecular target: T10, 4H4073-bA
T10 chain: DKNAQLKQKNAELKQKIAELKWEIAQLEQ

4H457-bA = molecular target: T11, 4H457-bA
T11 chain: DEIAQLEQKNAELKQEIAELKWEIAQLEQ

4H575-bA = molecular target: T12, 4H575-bA
T12 chain: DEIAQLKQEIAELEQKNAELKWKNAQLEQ

4H683-bA = molecular target: T13, 4H683-bA
T13 chain: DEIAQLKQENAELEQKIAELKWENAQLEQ

4H754-bA = molecular target: T14, 4H754-bA
T14 chain: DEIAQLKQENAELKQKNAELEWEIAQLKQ

4H780-bA = molecular target: T15, 4H780-bA
T15 chain: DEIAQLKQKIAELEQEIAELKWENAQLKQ

4H797-bA = molecular target: T16, 4H797-bA
T16 chain: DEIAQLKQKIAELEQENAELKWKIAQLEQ

4H855-bA = molecular target: T17, 4H855-bA
T17 chain: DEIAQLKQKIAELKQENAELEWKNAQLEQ

4H918-bA = molecular target: T18, 4H918-bA
T18 chain: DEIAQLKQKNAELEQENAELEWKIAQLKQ

4H953-bA = molecular target: T19, 4H953-bA
T19 chain: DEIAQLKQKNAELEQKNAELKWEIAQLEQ

4H968-bA = molecular target: T20, 4H968-bA
T20 chain: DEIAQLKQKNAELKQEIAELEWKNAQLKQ

O2-bN = molecular target: T21, O2-bN
T21 chain: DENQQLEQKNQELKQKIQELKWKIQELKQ

4H48-bA = molecular target: T22, 4H48-bA
T22 chain: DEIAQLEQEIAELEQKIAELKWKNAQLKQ

4H491-bA = molecular target: T23, 4H491-bA
T23 chain: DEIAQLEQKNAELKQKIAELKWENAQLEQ

4H48-bN = molecular target: T24, 4H48-bN
T24 chain: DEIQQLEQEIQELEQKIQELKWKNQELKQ

4H491-bN = molecular target: T25, 4H491-bN
T25 chain: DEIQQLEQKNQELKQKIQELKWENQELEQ

P4A-bP = molecular target: T26, P4A-bP
T26 chain: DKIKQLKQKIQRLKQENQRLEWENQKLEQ

P5A-bP = molecular target: T27, P5A-bP
T27 chain: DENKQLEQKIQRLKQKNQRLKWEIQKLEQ

P6A-bP = molecular target: T28, P6A-bP
T28 chain: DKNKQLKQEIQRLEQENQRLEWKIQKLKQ

P7A-bP = molecular target: T29, P7A-bP
T29 chain: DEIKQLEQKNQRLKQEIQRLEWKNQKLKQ

P8A-bP = molecular target: T30, P8A-bP
T30 chain: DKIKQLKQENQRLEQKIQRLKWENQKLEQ

P9A-bP = molecular target: T31, P9A-bP
T31 chain: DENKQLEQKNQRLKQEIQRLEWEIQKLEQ

4H4001-bH = molecular target: T32, 4H4001-bH
T32 chain: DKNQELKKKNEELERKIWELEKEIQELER

4H454-bH = molecular target: T33, 4H454-bH
T33 chain: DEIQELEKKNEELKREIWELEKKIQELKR

4H462-bH = molecular target: T34, 4H462-bH
T34 chain: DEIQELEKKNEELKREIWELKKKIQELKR

4H568-bH = molecular target: T35, 4H568-bH
T35 chain: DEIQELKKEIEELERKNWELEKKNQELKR

4H607-bH = molecular target: T36, 4H607-bH
T36 chain: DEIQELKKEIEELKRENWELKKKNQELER

4H687-bH = molecular target: T37, 4H687-bH
T37 chain: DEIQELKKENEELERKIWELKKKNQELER

4H717-bH = molecular target: T38, 4H717-bH
T38 chain: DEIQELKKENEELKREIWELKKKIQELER

4H72-bH = molecular target: T39, 4H72-bH
T39 chain: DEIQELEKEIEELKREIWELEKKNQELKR

4H754-bH = molecular target: T40, 4H754-bH
T40 chain: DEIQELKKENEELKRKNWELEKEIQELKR

4H797-bH = molecular target: T41, 4H797-bH
T41 chain: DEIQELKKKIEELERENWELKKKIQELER

4H883-bH = molecular target: T42, 4H883-bH
T42 chain: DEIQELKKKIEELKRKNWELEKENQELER

4H908-bH = molecular target: T43, 4H908-bH
T43 chain: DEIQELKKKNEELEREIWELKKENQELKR

4H918-bH = molecular target: T44, 4H918-bH
T44 chain: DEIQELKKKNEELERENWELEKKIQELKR

4H932-bH = molecular target: T45, 4H932-bH
T45 chain: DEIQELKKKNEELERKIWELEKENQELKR

4H953-bH = molecular target: T46, 4H953-bH
T46 chain: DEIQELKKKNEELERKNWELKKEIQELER

4H967-bH = molecular target: T47, 4H967-bH
T47 chain: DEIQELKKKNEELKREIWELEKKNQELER

4H496-bH = molecular target: T48, 4H496-bH
T48 chain: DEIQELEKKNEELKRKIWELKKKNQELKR

4H2618-bH = molecular target: T49, 4H2618-bH
T49 chain: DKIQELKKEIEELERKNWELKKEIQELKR

4H2667-bH = molecular target: T50, 4H2667-bH
T50 chain: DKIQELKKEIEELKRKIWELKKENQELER

4H2729-bH = molecular target: T51, 4H2729-bH
T51 chain: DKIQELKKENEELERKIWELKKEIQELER

4H3112-bH = molecular target: T52, 4H3112-bH
T52 chain: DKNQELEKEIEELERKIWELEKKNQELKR

4H3185-bH = molecular target: T53, 4H3185-bH
T53 chain: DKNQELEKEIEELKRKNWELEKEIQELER

4H331-bH = molecular target: T54, 4H331-bH
T54 chain: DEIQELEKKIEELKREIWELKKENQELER

4H3354-bH = molecular target: T55, 4H3354-bH
T55 chain: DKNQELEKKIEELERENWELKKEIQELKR

4H338-bH = molecular target: T56, 4H338-bH
T56 chain: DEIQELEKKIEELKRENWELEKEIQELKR

4H3427-bH = molecular target: T57, 4H3427-bH
T57 chain: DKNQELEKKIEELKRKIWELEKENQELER

4H3782-bH = molecular target: T58, 4H3782-bH
T58 chain: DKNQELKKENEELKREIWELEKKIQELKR

4H3855-bH = molecular target: T59, 4H3855-bH
T59 chain: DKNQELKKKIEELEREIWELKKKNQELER

interaction score (4H2586-bA): 1.48 | interaction score (4H2627-bA): 0.292 | interaction score (4H2673-bA): 0.53 | interaction score (4H2702-bA): 0.531 | interaction score (4H3010-bA): 1.28 | interaction score (4H3112-bA): -1 | interaction score (4H3427-bA): -0.911 | interaction score (4H346-bA): 0.976 | interaction score (4H3926-bA): 1.9 | interaction score (4H4073-bA): 0.255 | interaction score (4H457-bA): 0.765 | interaction score (4H575-bA): -0.515 | interaction score (4H683-bA): 0.537 | interaction score (4H754-bA): -1.06 | interaction score (4H780-bA): -1.17 | interaction score (4H797-bA): 0.763 | interaction score (4H855-bA): 1.54 | interaction score (4H918-bA): -0.499 | interaction score (4H953-bA): 1.17 | interaction score (4H968-bA): -1.91 | interaction score (O2-bN): -0.327
Binder: DKIAQLKQEIAELEQENAELKWEIAQLKQ [4H2586-bA]

interaction score (4H48-bA): 1.25 | interaction score (4H491-bA): 1.09
Binder: DEIAQLEQEIAELEQKIAELKWKNAQLKQ [4H48-bA]

interaction score (4H48-bN): 1.04 | interaction score (4H491-bN): -0.799
Binder: DEIQQLEQEIQELEQKIQELKWKNQELKQ [4H48-bN]

interaction score (P4A-bP): -1.09 | interaction score (P5A-bP): -1.59 | interaction score (P6A-bP): -0.773 | interaction score (P7A-bP): -1.51 | interaction score (P8A-bP): -0.918 | interaction score (P9A-bP): -0.489
Binder: DKIKQLKQKIQRLKQENQRLEWENQKLEQ [P4A-bP]

interaction score (4H4001-bH): -0.117 | interaction score (4H454-bH): 1.29 | interaction score (4H462-bH): -0.256 | interaction score (4H568-bH): -0.215 | interaction score (4H607-bH): -2.7 | interaction score (4H687-bH): -0.869 | interaction score (4H717-bH): -0.479 | interaction score (4H72-bH): -2.05 | interaction score (4H754-bH): -0.348 | interaction score (4H797-bH): -0.61 | interaction score (4H883-bH): -1.67 | interaction score (4H908-bH): -0.558 | interaction score (4H918-bH): -2.1 | interaction score (4H932-bH): 0.0317 | interaction score (4H953-bH): -1.36 | interaction score (4H967-bH): -2.28 | interaction score (P4A-bP): 0.398
Binder: DKNQELKKKNEELERKIWELEKEIQELER [4H4001-bH]

interaction score (4H496-bH): -0.197
Binder: DEIQELEKKNEELKRKIWELKKKNQELKR [4H496-bH]

interaction score (4H2618-bH): 1.05 | interaction score (4H2667-bH): 0.678 | interaction score (4H2729-bH): 2 | interaction score (4H3112-bH): -0.148 | interaction score (4H3185-bH): 1.08 | interaction score (4H331-bH): 1.85 | interaction score (4H3354-bH): 0.422 | interaction score (4H338-bH): 1.42 | interaction score (4H3427-bH): 1.07 | interaction score (4H3782-bH): -0.244 | interaction score (4H3855-bH): -0.442 | interaction score (4H4001-bH): 0.338 | interaction score (4H454-bH): 1.16 | interaction score (4H48-bN): 1.54 | interaction score (4H568-bH): -0.291 | interaction score (4H607-bH): -1.63 | interaction score (4H687-bH): 0.466 | interaction score (4H717-bH): -0.283 | interaction score (4H72-bH): -0.76 | interaction score (4H754-bH): -0.696 | interaction score (4H797-bH): 0.872 | interaction score (4H883-bH): 0.271 | interaction score (4H908-bH): -1.01 | interaction score (4H918-bH): 0.911 | interaction score (4H953-bH): 0.869 | interaction score (4H967-bH): -0.781
Binder: DKIQELKKEIEELERKNWELKKEIQELKR [4H2618-bH]
